Data published in patent US20090227507A1, “Angiotensin (1-7) Dosage Forms and Uses Thereof” (UNIVERSITY OF SOUTHERN CALIFORNIA, priority 2008, published 2009).
Entries after “also recorded” stand apart in the source; their conditions may differ.

Tests used:
[1] = Urinalysis with microscopic examination of sediment in healthy men; assay type: in vivo, human; settings: Subject 011, 200 μg/kg
Protocol: Laboratory measurements were conducted by a local clinical laboratory.
Blood, urobilinogen, ketones, glucose, protein, microscopic examination of sediment, sodium, and potassium.

[2] = Clinical chemistry in healthy men; settings: for Potassium shift H-N, number of subjects / Potassium shift L-N, number of subjects / Potassium shift N-H, number of subjects / Potassium shift N-L, number of subjects: Chemistry; for AST/SGOT High/Low Normal/Abnormal: Subject 027, 200 μg/kg
Protocol: (§1) Safety evaluations are based on AEs, PEs, vital signs, temperature, and laboratory results from baseline to study completion. Laboratory measurements were conducted by a local clinical laboratory. Using standard procedures, blood samples were drawn or urine collected from subjects for the following laboratory tests:
Aspartate aminotransferase (AST), alanine aminotransferase (ALT), gamma, glutamyltranferase (GGT), creatinine, creatine kinase, sodium, potassium, bicarbonate (CO2), chloride, glucose, magnesium, calcium, inorganic phosphorous, blood urea nitrogen (BUN), total protein, albumin, total bilirubin, direct and indirect bilirubin, uric acid, and alkaline phosphatase,

[3] = Adverse events, safety and tolerability in healthy men
From the text: Safety: Safety and tolerance evaluations included: • Tolerability including local reactions at the injection site. • Vital signs (blood pressure [BP], pulse rate [PR], respiration rate [RR], and temperature). • Routine clinical laboratory tests (hematology, serum biochemistry, and urinalysis). • Recording of adverse events (AE). • Electrocardiograms (ECG) at baseline and Day 8.
Descriptive statistics were used to summarize adverse events (AEs). Descriptive statistics, with change from baseline, were used for clinical laboratory results, vital signs, and flow cytometry data. Shift tables were prepared for clinical laboratory results. Other data are listed.
as §1
All AEs were coded using the Medical Dictionary for Regulatory Activities Version 5.1 (MedDRA®).

[4] = 200 μg/kg, N = 9, baseline to Day 8
[5] = 300 μg/kg, N = 8, baseline to Day 8
[6] = 200 μg/kg group, of the 7 events
[7] = 300 μg/kg group, of the 13 events

## Asp-Arg-Val-Tyr-Ile-His-Pro [USB003]
[1]; Day 1
  Urine Glucose High/Low Normal/Abnormal: Abnormal
  Urine Glucose Significance: CS AE
  Urine Glucose Value: +1
[1]; Day 3
  Urine Glucose High/Low Normal/Abnormal: N
  Urine Glucose Value: neg
[2]; [4]
  ALT (SGPT) shift H-N, number of subjects: — (“—” = 0)
  ALT (SGPT) shift L-N, number of subjects: — (“—” = 0)
  ALT (SGPT) shift N-H, number of subjects: 1
  ALT (SGPT) shift N-L, number of subjects: — (“—” = 0)
  AST (SGOT) shift H-N, number of subjects: — (“—” = 0)
  AST (SGOT) shift L-N, number of subjects: — (“—” = 0)
  AST (SGOT) shift N-H, number of subjects: 1
  AST (SGOT) shift N-L, number of subjects: — (“—” = 0)
  BUN shift H-N, number of subjects: — (“—” = 0)
  BUN shift L-N, number of subjects: 1
  BUN shift N-H, number of subjects: — (“—” = 0)
  BUN shift N-L, number of subjects: — (“—” = 0)
  Magnesium shift H-N, number of subjects: — (“—” = 0)
  Magnesium shift L-N, number of subjects: — (“—” = 0)
  Magnesium shift N-H, number of subjects: — (“—” = 0)
  Magnesium shift N-L, number of subjects: 1
  Total CPK shift H-N, number of subjects: 1
  Total CPK shift L-N, number of subjects: — (“—” = 0)
  Total CPK shift N-H, number of subjects: — (“—” = 0)
  Total CPK shift N-L, number of subjects: — (“—” = 0)
  Potassium shift H-N, number of subjects: — (“—” = 0)
  Potassium shift L-N, number of subjects: — (“—” = 0)
  Potassium shift N-H, number of subjects: — (“—” = 0)
  Potassium shift N-L, number of subjects: — (“—” = 0)
[2]; 200 μg/kg, Day 8
  ALT, Subject 009: 103 IU/L
  AST, Subject 009: 66 IU/L
[2]; 200 μg/kg, Day 14
  ALT, Subject 009: 61 IU/L
  AST, Subject 009: 29 IU/L
[2]; [5]
  ALT (SGPT) shift H-N, number of subjects: — (“—” = 0)
  ALT (SGPT) shift L-N, number of subjects: — (“—” = 0)
  ALT (SGPT) shift N-H, number of subjects: — (“—” = 0)
  ALT (SGPT) shift N-L, number of subjects: — (“—” = 0)
  AST (SGOT) shift H-N, number of subjects: — (“—” = 0)
  AST (SGOT) shift L-N, number of subjects: — (“—” = 0)
  AST (SGOT) shift N-H, number of subjects: — (“—” = 0)
  AST (SGOT) shift N-L, number of subjects: — (“—” = 0)
  BUN shift H-N, number of subjects: — (“—” = 0)
  BUN shift L-N, number of subjects: 1
  BUN shift N-H, number of subjects: — (“—” = 0)
  BUN shift N-L, number of subjects: — (“—” = 0)
  Magnesium shift H-N, number of subjects: — (“—” = 0)
  Magnesium shift L-N, number of subjects: 1
  Magnesium shift N-H, number of subjects: — (“—” = 0)
  Magnesium shift N-L, number of subjects: — (“—” = 0)
  Total CPK shift H-N, number of subjects: — (“—” = 0)
  Total CPK shift L-N, number of subjects: — (“—” = 0)
  Total CPK shift N-H, number of subjects: — (“—” = 0)
  Total CPK shift N-L, number of subjects: — (“—” = 0)
  Potassium shift H-N, number of subjects: 1
  Potassium shift L-N, number of subjects: — (“—” = 0)
  Potassium shift N-H, number of subjects: — (“—” = 0)
  Potassium shift N-L, number of subjects: 1
[2]; Day 7 U (unscheduled)
  AST/SGOT High/Low Normal/Abnormal: N
[2]; Day 8
  AST/SGOT High/Low Normal/Abnormal: N
[2]; baseline to Day 4 or Day 8
  mean change from baseline on any serum chemistry evaluations: no notable effects
[3]; 200 μg/kg
  incidence of ALT increase: 22.2%
  incidence of body temperature increase: 0.0%
[3]; 200 μg/kg (N = 9)
  ALT increased, Events: 2
  ALT increased, Subjects: 2 (22.2) N (%)
  AST increased, Events: 1
  AST increased, Subjects: 1 (11.1) N (%)
  Body temperature increased, Events: 0
  Body temperature increased, Subjects: 0 (0.0) N (%)
  Cyst NOS, Events: 1
  Cyst NOS, Subjects: 1 (11.1) N (%)
  Gastroesophageal reflux, Events: 0
  Gastroesophageal reflux, Subjects: 0 (0.0) N (%)
  Gastrointestinal disorders, Events: 0
  Gastrointestinal disorders, Subjects: 0 (0.0) N (%)
  Headache, Events: 0
  Headache, Subjects: 0 (0.0) N (%)
  Infections/Infestations, Events: 0
  Injury, poisoning and procedural complications, Events: 0
  Injury, poisoning and procedural complications, Subjects: 0 (0.0) N (%)
  Investigations, Events: 4
  Investigations, Subjects: 2 (22.2) N (%)
  Joint sprain, Events: 0
  Joint sprain, Subjects: 0 (0.0) N (%)
  Nasal congestion, Events: 1
  Nasal congestion, Subjects: 1 (11.1) N (%)
  Nausea, Events: 0
  Nausea, Subjects: 0 (0.0) N (%)
  Neoplasms benign, Events: 1
  Neoplasms benign, Subjects: 1 (11.1) N (%)
  Nervous system disorders, Events: 0
  Nervous system disorders, Subjects: 0 (0.0) N (%)
  Neutrophil count increased, Events: 0
  Neutrophil count increased, Subjects: 0 (0.0) N (%)
  Pharyngitis, Events: 1
  Pharyngitis, Subjects: 1 (11.1) N (%)
  Respiratory, thoracic and mediastinal disorders, Events: 2
  Respiratory, thoracic and mediastinal disorders, Subjects: 1 (11.1) N (%)
  Subjects With At Least 1 AE, Events: 7
  Subjects With At Least 1 AE, Subjects: 4 (44.4) N (%)
  WBC increased, Events: 1
  WBC increased, Subjects: 1 (11.1) N (%)
  White blood cells in urine, Events: 0
  White blood cells in urine, Subjects: 0 (0.0) N (%)
[3]; 200 μg/kg dose group
  subjects with clinically significant (CS) out-of-range laboratory values: 3
  total CS laboratory abnormalities: 6
[3]; 200 μg/kg group
  incidence of AEs: 44.4%
[3]; [6]
  AE events assessed as doubtful relationship to study drug: 3
  AE events assessed as not related to study drug: 2
  AE events assessed as possible relationship to study drug: 2
[3]; 200 μg/kg, Day 7, resolved without treatment on Study Day 10
  adverse event, Subject 028: cystic nodule on their anterior abdominal wall
[3]; 300 μg/kg
  incidence of ALT increase: 0.0%
  incidence of body temperature increase: 50%
[3]; 300 μg/kg (N = 8)
  ALT increased, Events: 0
  ALT increased, Subjects: 0 (0.0) N (%)
  AST increased, Events: 1
  AST increased, Subjects: 1 (12.5) N (%)
  Body temperature increased, Events: 7
  Body temperature increased, Subjects: 4 (50.0) N (%)
  Cyst NOS, Events: 0
  Cyst NOS, Subjects: 0 (0.0) N (%)
  Gastroesophageal reflux, Events: 0
  Gastroesophageal reflux, Subjects: 0 (0.0) N (%)
  Gastrointestinal disorders, Events: 1
  Gastrointestinal disorders, Subjects: 1 (12.5) N (%)
  Headache, Events: 0
  Headache, Subjects: 1 (12.5) N (%)
  Infections/Infestations, Events: 1
  Injury, poisoning and procedural complications, Events: 1
  Injury, poisoning and procedural complications, Subjects: 1 (12.5) N (%)
  Investigations, Events: 9
  Investigations, Subjects: 4 (50.0) N (%)
  Joint sprain, Events: 1
  Joint sprain, Subjects: 1 (12.5) N (%)
  Nasal congestion, Events: 0
  Nasal congestion, Subjects: 0 (0.0) N (%)
  Nausea, Events: 1
  Nausea, Subjects: 1 (12.5) N (%)
  Neoplasms benign, Events: 0
  Neoplasms benign, Subjects: 0 (0.0) N (%)
  Nervous system disorders, Events: 0
  Nervous system disorders, Subjects: 1 (12.5) N (%)
  Neutrophil count increased, Events: 1
  Neutrophil count increased, Subjects: 1 (12.5) N (%)
  Pharyngitis, Events: 0
  Pharyngitis, Subjects: 0 (0.0) N (%)
  Respiratory, thoracic and mediastinal disorders, Events: 0
  Respiratory, thoracic and mediastinal disorders, Subjects: 0 (0.0) N (%)
  Subjects With At Least 1 AE, Events: 13
  Subjects With At Least 1 AE, Subjects: 4 (50.0) N (%)
  WBC increased, Events: 0
  WBC increased, Subjects: 0 (0.0) N (%)
  White blood cells in urine, Events: 0
  White blood cells in urine, Subjects: 0 (0.0) N (%)
[3]; 300 μg/kg dose group
  subjects with clinically significant (CS) out-of-range laboratory values: 1
  total CS laboratory abnormalities: 2
[3]; 300 μg/kg dose group, temperature >37.7° C.
  subjects with elevations in oral body temperature assessed as an AE: 4
[3]; 300 μg/kg group
  incidence of AEs: 50.0%
[3]; [7]
  AE events assessed as doubtful relationship to study drug: 2
  AE events assessed as not related to study drug: 3
  AE events assessed as possible relationship to study drug: 8
[3]; 300 μg/kg, Day 2
  onset of headache after the morning dose, Subject 053: 10 h
  time to resolution of headache without treatment, Subject 053: 5 h
[3]; 300 μg/kg, study Day 18
  severity of ankle sprain, Subject 046: Grade 2
[3]; SC doses of 200 and 300 μg/kg
  deaths or serious adverse events: no deaths or other serious adverse events; also recorded: no deaths or SAEs
  discontinuation from the study because of an AE: no subject discontinued from the study because of an AE; also recorded: no AE led to withdrawal from the study
  safety and tolerability: safe and well tolerated
[3]; whole study
  CTC scores of AEs: no AEs with CTC scores of Grade 3 or higher and only 1 Grade 2 toxicity
